# Where a chain is given by its changes, count along the chain named.
# B1: B8H3, P04386 1-147 (peptide)
# chain: MKLLSSIEQACDICRLKKLKCSKEKPKCAKCLKNNWECRYSPKTKRSPLTRAHLTEVESRLERLEQLFLLIFPREDLDMILKMDSLQDIKALLTGLFVQDNVNKDAVTDRLASVETDMPLTLRQHRISATSSSEESSNKGQRQLTVSEFHSRLRVEVVSWGIGSTCSQANSGRISYDL
# modifications: not checked
# B2: B5H10 (peptide)
# chain: MKLLSSIEQACDICRLKKLKCSKEKPKCAKCLKNNWECRYSPKTKRSPLTRAHLTEVESRLERLEQLFLLIFPREDLDMILKMDSLQDIKALLTGLFVQDNVNKDAVTDRLASVETDMPLTLRQHRISATSSSEESSNKGQRQLTVSEFSPPSSLLALLLGGKSLEPLPIRYKNVKRQFTSNSRGSVDLQPS
# B3: B6F3 (peptide)
# chain: MKLLSSIEQACDICRLKKLKCSKEKPKCAKCLKNNWECRYSPKTKRSPLTRAHLTEVESRLERLEQLFLLIFPREDLDMILKMDSLQDIKALLTGLFVQDNVNKDAVTDRLASVETDMPLTLRQHRISATSSSEESSNKGQRQLTVSEFFRATHLLRLLRTDSALDLQPS
# B4: B5A2 (peptide)
# chain: MKLLSSIEQACDICRLKKLKCSKEKPKCAKCLKNNWECRYSPKTKRSPLTRAHLTEVESRLERLEQLFLLIFPREDLDMILKMDSLQDIKALLTGLFVQDNVNKDAVTDRLASVETDMPLTLRQHRISATSSSEESSNKGQRQLTVSEFGCSAILRYLLRSPRDLDLQPS
# B5: B2G1 (peptide)
# chain: B3 chain with A152L, T153R, H154R, L156D, R160Q, T161D, D162S, S163F, A164L
# B6: B4F6 (peptide)
# chain: B4 chain with G150S, C151G, S152V, A153P, R156H, Y157M, R160M, S161L, R163S, D164S
# B7: B6C4 (peptide)
# chain: B4 chain with G150D, C151R, A153S, R156V, Y157S, R160S, S161M, P162V, R163E, D164T
# B8: B1A1 (peptide)
# chain: MKLLSSIEQACDICRLKKLKCSKEKPKCAKCLKNNWECRYSPKTKRSPLTRAHLTEVESRLERLEQLFLLIFPREDLDMILKMDSLQDIKALLTGLFVQDNVNKDAVTDRLASVETDMPLTLRQHRISATSSSEESSNKGQRQLTVSEFCPVGLLVHLLMQ
# B9: B1G8 (peptide)
# chain: B8 chain with C150T, P151S, G153S, L154R, H157T, M160L
# B10: B8E9, P04386 1-147 (peptide)
# chain: MKLLSSIEQACDICRLKKLKCSKEKPKCAKCLKNNWECRYSPKTKRSPLTRAHLTEVESRLERLEQLFLLIFPREDLDMILKMDSLQDIKALLTGLFVQDNVNKDAVTDRLASVETDMPLTLRQHRISATSSSEESSNKGQRQLTVSEFQQCMCAEVKSWLGGSLDLQPS
# modifications: not checked
# Experiments:
# Experiment in all cases: cell-based or functional assay
# [1] = molecular target: T1, Gal4 transcriptional activation domain (AD) fused in frame with AR (pGAD-C2) (yeast), P10275
# T1 chain: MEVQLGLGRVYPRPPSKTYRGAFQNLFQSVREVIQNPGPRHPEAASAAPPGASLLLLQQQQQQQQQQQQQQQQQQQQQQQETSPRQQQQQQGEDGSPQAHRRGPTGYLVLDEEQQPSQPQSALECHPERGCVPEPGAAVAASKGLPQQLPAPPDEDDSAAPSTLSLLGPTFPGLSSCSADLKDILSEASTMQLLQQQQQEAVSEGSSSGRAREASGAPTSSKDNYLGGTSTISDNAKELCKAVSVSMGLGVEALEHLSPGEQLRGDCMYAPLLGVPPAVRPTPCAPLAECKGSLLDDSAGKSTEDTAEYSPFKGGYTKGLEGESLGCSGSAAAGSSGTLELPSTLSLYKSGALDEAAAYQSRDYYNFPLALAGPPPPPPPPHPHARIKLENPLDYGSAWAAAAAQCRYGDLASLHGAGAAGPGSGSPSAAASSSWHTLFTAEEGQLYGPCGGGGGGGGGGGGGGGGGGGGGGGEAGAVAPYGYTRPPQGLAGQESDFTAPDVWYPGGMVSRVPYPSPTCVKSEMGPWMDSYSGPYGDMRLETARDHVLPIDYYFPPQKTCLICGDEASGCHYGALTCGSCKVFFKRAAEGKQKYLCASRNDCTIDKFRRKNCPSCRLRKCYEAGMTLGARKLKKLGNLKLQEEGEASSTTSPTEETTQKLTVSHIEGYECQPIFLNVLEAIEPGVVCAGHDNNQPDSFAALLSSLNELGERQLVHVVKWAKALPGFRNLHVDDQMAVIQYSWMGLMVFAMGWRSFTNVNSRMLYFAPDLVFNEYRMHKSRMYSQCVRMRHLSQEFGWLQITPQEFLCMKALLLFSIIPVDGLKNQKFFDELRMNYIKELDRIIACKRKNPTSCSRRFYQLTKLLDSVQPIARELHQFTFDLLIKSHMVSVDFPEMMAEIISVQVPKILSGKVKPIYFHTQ
# [2] = molecular target: T2, pVP16-AR (VP16 activation domain fused to androgen receptor), P10275
# T2 chain: T1 chain
# [3] = molecular target: T3, estrogen receptor (ER) α as a carboxy-terminal fusion to the Gal4 activation domain (yeast, UniProt P03372 1-595, limits assumed)
# T3 sequence (looked up): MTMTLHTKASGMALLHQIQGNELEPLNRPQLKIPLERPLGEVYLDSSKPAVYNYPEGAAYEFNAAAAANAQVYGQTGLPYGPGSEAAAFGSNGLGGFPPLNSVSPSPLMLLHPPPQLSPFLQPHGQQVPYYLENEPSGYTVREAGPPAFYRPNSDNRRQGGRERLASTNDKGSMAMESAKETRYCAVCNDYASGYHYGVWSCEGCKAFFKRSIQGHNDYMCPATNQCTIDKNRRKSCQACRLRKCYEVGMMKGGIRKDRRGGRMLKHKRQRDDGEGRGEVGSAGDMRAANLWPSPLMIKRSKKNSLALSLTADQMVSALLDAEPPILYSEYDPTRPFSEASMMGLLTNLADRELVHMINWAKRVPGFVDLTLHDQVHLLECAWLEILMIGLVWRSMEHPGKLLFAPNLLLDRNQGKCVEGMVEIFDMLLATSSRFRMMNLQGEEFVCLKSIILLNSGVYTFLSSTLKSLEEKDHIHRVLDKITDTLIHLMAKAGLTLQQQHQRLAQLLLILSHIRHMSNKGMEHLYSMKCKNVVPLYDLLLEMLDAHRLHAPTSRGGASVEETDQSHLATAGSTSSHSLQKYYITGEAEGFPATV
binder,measurement,setting,value
B1,"Fold induction, yeast two-hybrid",[1],22 fold
same,"β-galactosidase activity, yeast two-hybrid; CPA",[1],0.393
same,"β-galactosidase activity, yeast two-hybrid; DHT",[1],3.81
same,"β-galactosidase activity, yeast two-hybrid; No Lig",[1],0.174
same,"β-galactosidase activity, yeast two-hybrid; RU",[1],0
same,"normalized luciferase activity, mammalian two-hybrid; CYP.",[2],10.5
same,"normalized luciferase activity, mammalian two-hybrid; DHT",[2],11.6
same,"normalized luciferase activity, mammalian two-hybrid; MPA",[2],11.3
same,"normalized luciferase activity, mammalian two-hybrid; RU486",[2],3.88
same,"normalized luciferase activity, mammalian two-hybrid; no compound",[2],0.132
B2,"fold induction of β-galactosidase by estradiol, yeast two-hybrid",[3],4.5 fold
B3,"fold induction of β-galactosidase by estradiol, yeast two-hybrid",[3],3 fold
B4,"fold induction of β-galactosidase by estradiol, yeast two-hybrid",[3],2.5 fold
B5,"fold induction of β-galactosidase by estradiol, yeast two-hybrid",[3],12 fold
B6,"fold induction of β-galactosidase by estradiol, yeast two-hybrid",[3],5 fold
B7,"fold induction of β-galactosidase by estradiol, yeast two-hybrid",[3],≥ 2 fold
B8,"fold induction of β-galactosidase by estradiol, yeast two-hybrid",[3],11 fold
B9,"fold induction of β-galactosidase by estradiol, yeast two-hybrid",[3],6 fold
B10,"Fold induction, yeast two-hybrid",[1],4 fold
same,"β-galactosidase activity, yeast two-hybrid; CPA",[1],0.563
same,"β-galactosidase activity, yeast two-hybrid; DHT",[1],1.75
same,"β-galactosidase activity, yeast two-hybrid; No Lig",[1],0.499
same,"β-galactosidase activity, yeast two-hybrid; RU",[1],0.8
same,"normalized luciferase activity, mammalian two-hybrid; CYP.",[2],16
same,"normalized luciferase activity, mammalian two-hybrid; DHT",[2],19.6
same,"normalized luciferase activity, mammalian two-hybrid; MPA",[2],18.5
same,"normalized luciferase activity, mammalian two-hybrid; RU486",[2],10.2
same,"normalized luciferase activity, mammalian two-hybrid; no compound",[2],0.209

# Reference: patent publication US20030224390A1, “Method of identifying conformation-sensitive binding peptides and uses thereof” (Karo Bio AB, priority 2000, published 2003)
